Test results from the DeepSol protein solubility set.

Assay: soluble on expression in E. coli; label from the status in PepcDB or PDB records

| Sequence | soluble on expression in E. coli |
| --- | --- |
| MSNTEERCDLSSSRDCPERHEHLLQRVTARAAEIGGGITVSRLMPSRQRRMIGAWCFLDHAGPAEFEPGGGLAVGPHPHIGLQTFTWMIQGEALHRDSLGNVQVIRPGQVNLMTAGHGIAHTEESLPDERHAHAAQLWIALPYEQRDIAPAFDHHPDLPRWQEQGVTFTLLAGALAGRQAPCRLYSPLLGADLACHDASTLQLTLDPHFEYGLLPLEGGLEVGGEHFAVNELAYLGDGRDGLQLQLDPGARVLLLGGAPFGAEIFMWWNFVGHSKGEIARAQKAWEEGDARFGRLDALEGPRLSAPPIPWKIDAE | not soluble |
| MSNYWLNIYKPRGISSAQLVSIVKKILGKTKIGHAGTLDVEAEGILPFAVGEATKLIHLLVDARKTYIFTVKFGMQTNSGDCAGKVIATKDCIPSQEEAYAVCSKFIGNVTQIPPAFSALKVNGVRAYKLAREGKKVELKPRNITIYDLKCLNFDEKNATATYYTECSKGTYIRTLAEDLALSLQSLGFVIELRRTQVGIFKEENAIRIKSPDEITKNALEENSIKIEAILDDILVLDATDSQAQQIKYGQKCLFNYEKDFRHLAKFAYREEFKGNTERNTTAYTLVREDASTGLTYKLPLEVEFGKMSVDLLWVRYKGTLLAIGSLNKSCFNSLRVFNLTQDFF | not soluble |
| MSPFMEKTLLLLGVLCCIQVTTALMCYDCNSEFDPRCGDPFEPYSIGEVNCSKQEPLEHLKDKYKPTLCRKTVQKIYGKTRIVRGCGYIPDENTDNKCVRRSGTHDVAAIYCSCTKDLCNGANSPAGQWMMLPLIVAAGLALLLNSRHTIRFQSS | not soluble |
| MSPLASRALSFLGALSLLTFAATPVLAESTPTAAPPQFAVESPKAASSLLLSVAHAGKRLVAVGDRGHILLSDDDGKTWTQAKVPTRQLLTSVFFVNERKGWAVGHDAQILVSDDAGSTWARQFEDLGREAPLLDIWFADEQHGLAVGAYGALLETRDGGQHWEDVSERLDNEDQFHLNAIAAVKDNGLLVVGEAGSLFRSKDWGATWEKLEGPYEGSLFGAIGTADAGGVLVYGLRGHLFRSADFGDSWEEIPLKAASGDLEFGLSDGALLADGRIVVVGHGGSVLESTDGGRSFSVFNRPDRLSLAGVSATGDGHLILVGQGGVHLAAANGAALEQQQLEHHHHHH | not soluble |
| MSPSPLISHRAASADLAGMVRQARQRILLQGNVPGFDVARQIELLHGLAESELGRFLLLYRGLNAEWTHRLVTHQPGSGALAPLERVFYERLPAVLATRERHGHFRRALQRHLRPGCVVASVPCGWMSELLALDYSACPGVQLVGIDYDPEALDGATRLAAGHALAGQITLHRQDAWKLDTREGYDLLTSNGLNIYEPDDARVTELYRRFWQALKPGGALVTSFLTPPPALSPDSPWDMQAIDPHDLQLQQLVFTRLIQPRWNALRTHAQTRAQLEEAGFTDLRFEDDRARLFPTVIARKPA | soluble |
| MSPVHWPIHPKEYKWTVKPSPGPHAIENSLPLMIIVRDILKVADNAREARKIINSGEVLVDGRPRKNYKFPVGFMDVVSIPRTGDVYRVLPDERGRLVLHPIDEENAGFKLCKIVNKTTIKGGRTQLNLHDGRNYLSDDEFRVGDVVKLSIPEQEILERIPFEKDSLGLVTGGRHTGEIGKIKKINITRSSMPNTAVIETGAGKTFLTLKDYVFVIGKDESVISLPGGKLEHHHHHH | not soluble |
| MSQDNLSAVLYGVDDLRLEQVPIPKPGPNQVLVKVHTVGICGSDVHYWTHGAIGPFVVKEPMIVGHETSGIVSEVGNEVKHLKVGDRIAMEPGLPCKLCEHCKTGRYNLCPEMRFFATPPVHGTLSRFVVHDADFCFKLPDNLSFEDGALIEPLSVAIHACRRGNVQMGHRVLVLGAGPIGVLNLITAKAVGAGKVVITDLDDGRLALAKKLGADATINVKGKSLDAVKSEIITALGDQQPDVCIECTGAQPSIETAITTTKSGGVIVLVGLGADRVEIPIIESATREVDMRGIFRYVNCYPTAIELISSGKLNLSGLTRAHYKLEETQEAFKRTQKADVIKVFIQC | not soluble |
| MSQEQLVAVNELNENLGKVLIKIARDSIANKLGILKINLEDYLSSLNDPILNKKGLAFVTLETYYGNSTSLRGCIGYVEAVAPLKEIVSKAAIAAAFSDPRFPPLSKGEFDNIIIEVTVLTKPQEIDVENRWELPKKIKVGEDGLIVEYGILYSGLLLPQVPMEYCWDEETFLAETCIKAGLEPDCWLNNKVKIKKFQGIIFREEKPKSEKILIIKPSEVKCKKEEISLL | soluble |
| MSQFTHYPPVSDKQLGFFIDSSRCSGCKACQVACKDKNNLEVGRRFRRVYEVKGGSFIPTGQGGVSNNVFAYTLSISCNHCADPVCTKNCPTTAMHKRPGDGIVRVDTDKCVGCGYCAWSCPYGAPQLNEQTGQMSKCDMCVDLLAKGEPPVCVATCPLEAIKFGPIDELRAKYGSVCDVNGLPDSSITKPNLVVKAHQGAEKEGKRHA | not soluble |
| MSQKQEEENPAEETGEEKQDTQEKEGILPERAEEAKLKAKYPSLGQKPGGSDFLMKRLQKGQKYFDSGDYNMAKAKMKNKQLPSAGPDKNLVTGDHIPTPQDLPQRKSSLVTSKLAGGQVE | soluble |
| MSQLFVRTGITFDSSQQALAHIGKEMLAKGVVHDSYPQALVEREASFPTGIALERHAVAIPHCEAVHAKSPAIYLIRPDKPVMFQQADDDEEIAVSLIIALIVENPAAQLKLLRRLFSELQNPSTLDALLSAPDAELAIRFQETILEPEQCVQV | not soluble |
| MSQNSDTFDSGLQMEVHKMAEADNSSVQQKFDAIRDYIGRKETTIILCEHDDSRKIKLTLNKQRMESSMFLTEMPDGGIQEKTKFHRNGLAVCSYNAFDEVDLPLADSYIFYGLPSNVEAFPRMLHGIEKSAHKENKIVFIDIVVSILEKIQIKVVSFELYNRKCTVPTWVAELVITYCAPIEEQQQRIEEIRRTRASVPVAISDAANGSAEMVPSNTTGSSGSPMSTAPVPAAKKEKVQYESIRQIRPNAQGRYFVPARMINMDIEMSNDEYSPDESENDENEYDYENAARYDDGYDEGHEYCQ | not soluble |
| MSQPAYRLFNVELKRREQLSPALTRFVFGGPEVAEMKTLAADQRIKIFFPDASGQPPSLPGGSEWYQAYRSVEPARRPPMRTYTIRALRAEQEEVDVEFVLHGENGPASAWATHARIGDRLQLAAPNRQYGDDPGGYEWKPPAGVRHILLIADETALPAVAGILEELAGETEPPVVEAFLEVPGEADILDLPAIPAARLHWLPRHQAGIHSRNGERMIEAARQARLPEREVAGGAAQELEDIDIDEEILWELASPESGSFYAWVAGESAAVMAIRRYLVQERGIDKRHLTLMGYWRLGKVFD | not soluble |
| MSQQIQMKSVIDVKFPTHLFSPLATSSPKLTRMRAPIRDQSWSSCSDDSSGNLTSQAITGVDDSHIEATKLENESSTSSCSMHTALEFVNSSIFERVRSYSEVITREELQSAIFERKLTETDCSKEEAEMYSIIVTERILWTAGRTWTGTIQVKTKDLLNDYVRYACEDWYMKHTGQLCAVELNHIGKWDEIFDSNAIAIYCYETGIPTIIVDRIFSSNLVRRSTGNYLDTKEVTWLIFAMIGTDENQSIEYWFRVLDVQSTGILQLDDLRMFYDAITKFLVNNNVQSLPFENAIAQFRDILGTDKWNLQSFKKNSQLAFRVINGFVCALRFLEQEICEKTNTERQDDEEFGMVRTRWQRLIDHKFDDYYAQSSTSSSGSFNINNEPINPV | not soluble |
| MSQSEEQNKDIPSSSNFGNPANNGVNVPDAPARRLFDNTSDESDVSLDNDDKTGAETDGSSSSRGCLKSERSRKDHASTSSTRTVRAPQQVSWSFGAKPATPHSQPPAGLKKVPAYSATSSSSQAGPSASTSTARKSSLVGGRGSASSSGHTSPSPSESPARNAGCSSSGESNPDRSLTTPPLAPALKHSAKDGHYRGQRSMSLGGPAHEMLMSQLGGRQGNTVDCSPGEGDKVCLLVDQTRFLVSQRLLTSKPDTMLGRMFSMRASCGDLGADLVSPNERDEFEVADGMTSSCFRAILDYYQSGTMRCPSSVSVSELREACDYLLVPFNAQTVKCQNLHALLHELSNEGAREQFSQFLEEIILPQLVASTEHGERECHLVVLLDDDVVDWDDEYPPQMGEETTHVVYSTHLYKFFKYAENRDCAKQVLKERGLKKIRLGMEGYPTHKEKIKKRFNKAEVIYNYVQRPFVHCSWEKEEARSRHVDFACPIVKSKSNPSLAAAASDPLPQPAPLQQQHRVAVFGEAAPLAAHNRVDDQHFVQPLNQLMQQQAQLPQNNAMLGVNVQQQQHNHPLHSPPVNFQRNDREEE | soluble |
| MSQTVHFQGNPVTVANVIPQAGSKAQAFTLVAKDLSDVSLSQYAGKRKVLNIFPSIDTGVCAASVRKFNQLATEVENTVVLCVSADLPFAQSRFCGAEGLSNVITLSTLRNNEFLKNYGVEIVDGPLKGLAARAVIVLDENDNVIFSQLVDEITHEPDYDAALNVLKA | not soluble |
| MSQYSLQVGLTPEGPCSYLPKQKERLAVVMEQELHTALGYQALIRLGFRRSGETIYKPMCEHCDACKPLRINANQFKPSKSQKRLLNKLSSFRWELKSEMDGNWFDLYERYINTRHKTGSMYPANQKQFFEFSHSHWLTNQFLHIYENETLIAIAVSDVLSDSISAMYTFFEPEHPLSLGTISVLIQLKLCKELSKEWLYPGYQIDDCPAMKYKDQYKPNQKLVNMVWQGLEHHHHHH | soluble |
| MSRDPTYTINEHDLSFADGRFYVTFKADKSSETVRLNSSCLGNTIIKKLQVEDDNTMHDFVKPKVTTQQAFGLAQQVKELDLQLKDPKSDLWGKIKFNNKAMLVEYANKEMSSAIAQSAEQILLQVKSIDDERYSKFEQTLNGIKQTVKSESVESARTQLASMFDSRISGLDGKYSRLSQTIDSLSSRLDDGVGNYSTLSQKVSGIDLRVSNAANDVSRLSQTAQGLQSQITNANQNYSSLSQTVQGLQTTVRDNQSNATSRINQLSDLISTKVSKGDVETTIAQSYDKIAFAIRDKLPASKMSGSEIISAINLDRSGVKITGKNITLDGNSYISNAVIKDAHIANMDAGKINTGYLNANRIATEAITGEKIKMDYAFFNKLTANEGYFRTLFAKDIFATSVQSVTLSASKITGGVLAATNGASQWDLNNANMTFNRDATINFNSKNNALVRKDGTHTAFVHFSNATPKGYRGSALYASIGITSSGDGIDSASSGRFAGLRSFRYATGYNHTAAVDQTELYGDNVLIADDFNINRGFKFRPDKMEKVLDMNDLYAAVVALGRCWGHLANVGWNT | not soluble |
| MSRFPRRFIDDSSMEDAGISLCPSIHYRPINPNDLDRLEQIHRDIFPIKYESEFFQSVVNGVDIVSWAAVDRSRPDDHSDELIGFVTAKFVLAKDSEIDDLIHYDSSKGEETLIYILTLGVVETYRNRGIAMSLISEVIKYASGLSVCRGVYLHVIAHNNAAICLYKRLMFRCVRRLHGFYLINRHHFDAFLFVYFINGSRTPCSPLEVAMFVVNYMKSGIKSVASKLANKDEKGLKWLFCKDTDCV | soluble |
| MSRGSGILPDESMFAEFKRQCLSTENWVNKYDKNDMEVWVEQAPLSASINNKGNYSKVHKIRCQINIKDVSAATMYDVLHDGQYRKTWDPTMLESFDIARLAHNADVGYYSWICPKPLKNRDVVTLRSWQASENEYVIINFSVKHPKYPPRKDLVRAVSLMTGYLIKPTGPQSCIFTYLSQADPKGSLPKWVVNKASQVLAPKVLRSAHKAGQNYPAWKAANSPDHKPWLYPIQSELAMMDPAELSIQRGDSLENVDESSTRDAQENEDSS | not soluble |
| MSRGVKRVTAITNREREAVLRIEFPNVDVTDIDFDLFQARESTDKPLDVAAAIAYRLLLGSGLPQKFGCSDEVLLNFILQCRKKYRNVPYHNFYHVVDVCQTIYTFLYRGNVYEKLTELECFVLLITALVHDLDHMGLNNSFYLKTESPLGILSSASGNKSVLEVHHCNLAVEILSDPESDVFGGLEGAERTLAFRSMIDCVLATDMARHSEFLEKYLEIMKTSYNVDDSDHRQMTMDVLMKAGDISNVTKPFDVSRQWAMAVTEEFYRQGDMEKERGVEVLPMFDRSKNMELAKGQIGFIDFVAAPFFQKIVDACLQGMQWTVDRTKSNRAQWERVLEARSTGAS | soluble |
